B1: C10orf62 (parent)
chain: TSECPSDKDKSPESHKAKNESWIK

Variants of: B1
Assay: protein stability index of a GFP-peptide fusion (GPS, HEK-293T) (PSI 1-6); higher = more stable
Settings: c terminus: a fixed tail appended
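Further: lentivirally expressed fusions sorted by FACS into six bins by GFP to DsRed ratio, PSI derived from sequencing read proportions per bin multiplied by bin number.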

Compared with TSECPSDMDKSPESHKAKNESWIK [K8M], TSECPSDSDKSPESHKAKNESWIK [K8S] is higher in protein stability index: 3.52 for the first, 3.84 for the second.

Going from TSECPSDQDKSPESHKAKNESWIK [K8Q] to TSECPSDEDKSPESHKAKNESWIK [K8E], the protein stability index rises from 3.52 to 4.41.

Compared with TSECPSDNDKSPESHKAKNESWIK [K8N], TSECPSDHDKSPESHKAKNESWIK [K8H] is lower in protein stability index: 3.31 for the first, 3.15 for the second.

Going from TSECPSDGDKSPESHKAKNESWIK [K8G] to TSECPSDVDKSPESHKAKNESWIK [K8V], the protein stability index falls from 4.03 to 3.62.

Going from TSECPSDRDKSPESHKAKNESWIK [K8R] to TSECPSDFDKSPESHKAKNESWIK [K8F], the protein stability index falls from 3.95 to 3.68.

First: TSECPSDIDKSPESHKAKNESWIK [K8I]
Second: TSECPSDPDKSPESHKAKNESWIK [K8P]
The protein stability index of the first is higher: 3.48 for the first, 3.38 for the second.

First: TSECPSDLDKSPESHKAKNESWIK [K8L]
Second: TSECPSDYDKSPESHKAKNESWIK [K8Y]
The protein stability index of the first is higher: 3.38 for the first, 3.26 for the second.

First: TSECPSDWDKSPESHKAKNESWIK [K8W]
Second: TSECPSDCDKSPESHKAKNESWIK [K8C]
The protein stability index of the first is lower: 2.99 for the first, 3.52 for the second.

Compared with TSECPSDDDKSPESHKAKNESWIK [K8D], TSECPSDTDKSPESHKAKNESWIK [K8T] is higher in protein stability index: 3.35 for the first, 3.45 for the second.

Going from TSECPSDADKSPESHKAKNESWIK [K8A] to TSECPSDKDHSPESHKAKNESWIK [K10H], the protein stability index rises from 3.08 to 3.53.

Compared with TSECPSDKDISPESHKAKNESWIK [K10I], TSECPSDKDQSPESHKAKNESWIK [K10Q] is higher in protein stability index: 3.25 for the first, 3.46 for the second.

Compared with TSECPSDKDDSPESHKAKNESWIK [K10D], TSECPSDKDVSPESHKAKNESWIK [K10V] is lower in protein stability index: 4.02 for the first, 2.75 for the second.

First: TSECPSDKDLSPESHKAKNESWIK [K10L]
Second: TSECPSDKDSSPESHKAKNESWIK [K10S]
The protein stability index of the first is higher: 4.2 for the first, 3.41 for the second.

Compared with TSECPSDKDCSPESHKAKNESWIK [K10C], TSECPSDKDASPESHKAKNESWIK [K10A] is lower in protein stability index: 3.95 for the first, 3.64 for the second.

Compared with TSECPSDKDRSPESHKAKNESWIK [K10R], TSECPSDKDYSPESHKAKNESWIK [K10Y] is higher in protein stability index: 2.81 for the first, 2.94 for the second.

First: TSECPSDKDFSPESHKAKNESWIK [K10F]
Second: TSECPSDKDGSPESHKAKNESWIK [K10G]
The protein stability index of the first is higher: 3.72 for the first, 2.63 for the second.

Compared with TSECPSDKDPSPESHKAKNESWIK [K10P], TSECPSDKDWSPESHKAKNESWIK [K10W] is lower in protein stability index: 3.3 for the first, 2.28 for the second.

Going from TSECPSDKDESPESHKAKNESWIK [K10E] to TSECPSDKDNSPESHKAKNESWIK [K10N], the protein stability index falls from 4 to 3.73.

Going from TSECPSDKDTSPESHKAKNESWIK [K10T] to TSECPSDKDMSPESHKAKNESWIK [K10M], the protein stability index rises from 3.04 to 3.63.

Going from TSYCPSDKDKSPESHKAKNESWIK [E3Y] to TSVCPSDKDKSPESHKAKNESWIK [E3V], the protein stability index rises from 2.73 to 2.87.

Going from TSWCPSDKDKSPESHKAKNESWIK [E3W] to TSECPSDKDKHPESHKAKNESWIK [S11H], the protein stability index rises from 2.63 to 3.01.

First: TSECPSDKDKVPESHKAKNESWIK [S11V]
Second: TSECPSDKDKGPESHKAKNESWIK [S11G]
The protein stability index of the first is lower: 2.96 for the first, 3 for the second.

Compared with TSECPSDKDKFPESHKAKNESWIK [S11F], TSECPSDKDKQPESHKAKNESWIK [S11Q] is lower in protein stability index: 2.98 for the first, 1.92 for the second.

Going from TSECPSDKDKCPESHKAKNESWIK [S11C] to TSECPSDKDKDPESHKAKNESWIK [S11D], the protein stability index falls from 3.31 to 2.29.

Going from TSECPSDKDKPPESHKAKNESWIK [S11P] to TSECPSDKDKLPESHKAKNESWIK [S11L], the protein stability index falls from 3.52 to 3.04.

First: TSECPSDKDKTPESHKAKNESWIK [S11T]
Second: TSECPSDKDKRPESHKAKNESWIK [S11R]
The protein stability index of the first is higher: 3.85 for the first, 2.92 for the second.

First: TSECPSDKDKIPESHKAKNESWIK [S11I]
Second: TSECPSDKDKAPESHKAKNESWIK [S11A]
The protein stability index of the first is lower: 3.2 for the first, 3.41 for the second.

Going from TSECPSDKDKWPESHKAKNESWIK [S11W] to TSECPSDKDKNPESHKAKNESWIK [S11N], the protein stability index rises from 3.26 to 3.7.

Compared with TSECPSDKDKKPESHKAKNESWIK [S11K], TSECPSDKDKMPESHKAKNESWIK [S11M] is lower in protein stability index: 3.81 for the first, 3.26 for the second.

First: TSECPSDKDKYPESHKAKNESWIK [S11Y]
Second: TSECPSDKDKEPESHKAKNESWIK [S11E]
The protein stability index of the first is lower: 2.5 for the first, 3.67 for the second.

Compared with TSEHPSDKDKSPESHKAKNESWIK [C4H], TSEWPSDKDKSPESHKAKNESWIK [C4W] is lower in protein stability index: 3.34 for the first, 2.58 for the second.

Compared with TSEKPSDKDKSPESHKAKNESWIK [C4K], TSEIPSDKDKSPESHKAKNESWIK [C4I] is higher in protein stability index: 3.51 for the first, 3.92 for the second.

First: TSEDPSDKDKSPESHKAKNESWIK [C4D]
Second: TSEFPSDKDKSPESHKAKNESWIK [C4F]
The protein stability index of the first is lower: 3.17 for the first, 3.33 for the second.

Compared with TSESPSDKDKSPESHKAKNESWIK [C4S], TSEMPSDKDKSPESHKAKNESWIK [C4M] is higher in protein stability index: 2.46 for the first, 3.79 for the second.

First: TSEPPSDKDKSPESHKAKNESWIK [C4P]
Second: TSEYPSDKDKSPESHKAKNESWIK [C4Y]
The protein stability index of the first is higher: 3.39 for the first, 3.15 for the second.

Going from TSELPSDKDKSPESHKAKNESWIK [C4L] to TSEAPSDKDKSPESHKAKNESWIK [C4A], the protein stability index falls from 3.74 to 3.53.

First: TSENPSDKDKSPESHKAKNESWIK [C4N]
Second: TSEEPSDKDKSPESHKAKNESWIK [C4E]
The protein stability index of the first is lower: 3.4 for the first, 3.55 for the second.

First: TSERPSDKDKSPESHKAKNESWIK [C4R]
Second: TSETPSDKDKSPESHKAKNESWIK [C4T]
The protein stability index of the first is lower: 3.15 for the first, 3.28 for the second.

First: TSEGPSDKDKSPESHKAKNESWIK [C4G]
Second: TSEQPSDKDKSPESHKAKNESWIK [C4Q]
The protein stability index of the first is higher: 3.94 for the first, 3.52 for the second.

Going from TSECPSDKDKSPHSHKAKNESWIK [E13H] to TSECPSDKDKSPASHKAKNESWIK [E13A], the protein stability index falls from 3.02 to 2.77.

Compared with TSECPSDKDKSPTSHKAKNESWIK [E13T], TSECPSDKDKSPCSHKAKNESWIK [E13C] is higher in protein stability index: 2.65 for the first, 3.35 for the second.

Compared with TSECPSDKDKSPVSHKAKNESWIK [E13V], TSECPSDKDKSPLSHKAKNESWIK [E13L] is lower in protein stability index: 2.77 for the first, 2.21 for the second.

Compared with TSECPSDKDKSPDSHKAKNESWIK [E13D], TSECPSDKDKSPMSHKAKNESWIK [E13M] is lower in protein stability index: 2.98 for the first, 2.65 for the second.

Going from TSECPSDKDKSPFSHKAKNESWIK [E13F] to TSECPSDKDKSPNSHKAKNESWIK [E13N], the protein stability index rises from 2.94 to 3.43.

First: TSECPSDKDKSPQSHKAKNESWIK [E13Q]
Second: TSECPSDKDKSPGSHKAKNESWIK [E13G]
The protein stability index of the first is higher: 3.34 for the first, 2.89 for the second.

Compared with TSECPSDKDKSPRSHKAKNESWIK [E13R], TSECPSDKDKSPISHKAKNESWIK [E13I] is lower in protein stability index: 2.82 for the first, 2.44 for the second.

First: TSECPSDKDKSPSSHKAKNESWIK [E13S]
Second: TSECPSDKDKSPPSHKAKNESWIK [E13P]
The protein stability index of the first is higher: 3.2 for the first, 2.63 for the second.
